The series concerns the molecule itself. The experiment in a line: crystal structure.

B1: wild-type DegS (residues 27-355, without the membrane anchor) (enzyme, E. coli, UniProt P0AEE3 27-355, looked up)
chain: RSLNPLSTPQFDSTDETPASYNLAVRRAAPAVVNVYNRGLNTNSHNQLEIRTLGSGVIMDQRGYIITNKHVINDADQIIVALQDGRVFEALLVGSDSLTDLAVLKINATGGLPTIPINARRVPHIGDVVLAIGNPYNLGQTITQGIISATGRIGLNPTGRQNFLQTDASINHGNSGGALVNSLGELMGINTLSFDKSNDGETPEGIGFAIPFQLATKIMDKLIRDGRVIRGYIGIGGREIAPLHAQGGGIDQLQGIVVNEVSPDGPAANAGIQVNDLIISVDNKPAISALETMDQVAEIRPGSVIPVVVMRDDKQLTLQVTIQEYPATN
Turning to B1, the binding result was “binds”.

The values are drawn from paper PMC4351158 (Structure (London, England : 1993), 2015).
